{
  "source": "paper PMC2169334",
  "biological_target": "ankyrin-B (UniProt Q01484)",
  "sequence (Q01484 whole entry)": "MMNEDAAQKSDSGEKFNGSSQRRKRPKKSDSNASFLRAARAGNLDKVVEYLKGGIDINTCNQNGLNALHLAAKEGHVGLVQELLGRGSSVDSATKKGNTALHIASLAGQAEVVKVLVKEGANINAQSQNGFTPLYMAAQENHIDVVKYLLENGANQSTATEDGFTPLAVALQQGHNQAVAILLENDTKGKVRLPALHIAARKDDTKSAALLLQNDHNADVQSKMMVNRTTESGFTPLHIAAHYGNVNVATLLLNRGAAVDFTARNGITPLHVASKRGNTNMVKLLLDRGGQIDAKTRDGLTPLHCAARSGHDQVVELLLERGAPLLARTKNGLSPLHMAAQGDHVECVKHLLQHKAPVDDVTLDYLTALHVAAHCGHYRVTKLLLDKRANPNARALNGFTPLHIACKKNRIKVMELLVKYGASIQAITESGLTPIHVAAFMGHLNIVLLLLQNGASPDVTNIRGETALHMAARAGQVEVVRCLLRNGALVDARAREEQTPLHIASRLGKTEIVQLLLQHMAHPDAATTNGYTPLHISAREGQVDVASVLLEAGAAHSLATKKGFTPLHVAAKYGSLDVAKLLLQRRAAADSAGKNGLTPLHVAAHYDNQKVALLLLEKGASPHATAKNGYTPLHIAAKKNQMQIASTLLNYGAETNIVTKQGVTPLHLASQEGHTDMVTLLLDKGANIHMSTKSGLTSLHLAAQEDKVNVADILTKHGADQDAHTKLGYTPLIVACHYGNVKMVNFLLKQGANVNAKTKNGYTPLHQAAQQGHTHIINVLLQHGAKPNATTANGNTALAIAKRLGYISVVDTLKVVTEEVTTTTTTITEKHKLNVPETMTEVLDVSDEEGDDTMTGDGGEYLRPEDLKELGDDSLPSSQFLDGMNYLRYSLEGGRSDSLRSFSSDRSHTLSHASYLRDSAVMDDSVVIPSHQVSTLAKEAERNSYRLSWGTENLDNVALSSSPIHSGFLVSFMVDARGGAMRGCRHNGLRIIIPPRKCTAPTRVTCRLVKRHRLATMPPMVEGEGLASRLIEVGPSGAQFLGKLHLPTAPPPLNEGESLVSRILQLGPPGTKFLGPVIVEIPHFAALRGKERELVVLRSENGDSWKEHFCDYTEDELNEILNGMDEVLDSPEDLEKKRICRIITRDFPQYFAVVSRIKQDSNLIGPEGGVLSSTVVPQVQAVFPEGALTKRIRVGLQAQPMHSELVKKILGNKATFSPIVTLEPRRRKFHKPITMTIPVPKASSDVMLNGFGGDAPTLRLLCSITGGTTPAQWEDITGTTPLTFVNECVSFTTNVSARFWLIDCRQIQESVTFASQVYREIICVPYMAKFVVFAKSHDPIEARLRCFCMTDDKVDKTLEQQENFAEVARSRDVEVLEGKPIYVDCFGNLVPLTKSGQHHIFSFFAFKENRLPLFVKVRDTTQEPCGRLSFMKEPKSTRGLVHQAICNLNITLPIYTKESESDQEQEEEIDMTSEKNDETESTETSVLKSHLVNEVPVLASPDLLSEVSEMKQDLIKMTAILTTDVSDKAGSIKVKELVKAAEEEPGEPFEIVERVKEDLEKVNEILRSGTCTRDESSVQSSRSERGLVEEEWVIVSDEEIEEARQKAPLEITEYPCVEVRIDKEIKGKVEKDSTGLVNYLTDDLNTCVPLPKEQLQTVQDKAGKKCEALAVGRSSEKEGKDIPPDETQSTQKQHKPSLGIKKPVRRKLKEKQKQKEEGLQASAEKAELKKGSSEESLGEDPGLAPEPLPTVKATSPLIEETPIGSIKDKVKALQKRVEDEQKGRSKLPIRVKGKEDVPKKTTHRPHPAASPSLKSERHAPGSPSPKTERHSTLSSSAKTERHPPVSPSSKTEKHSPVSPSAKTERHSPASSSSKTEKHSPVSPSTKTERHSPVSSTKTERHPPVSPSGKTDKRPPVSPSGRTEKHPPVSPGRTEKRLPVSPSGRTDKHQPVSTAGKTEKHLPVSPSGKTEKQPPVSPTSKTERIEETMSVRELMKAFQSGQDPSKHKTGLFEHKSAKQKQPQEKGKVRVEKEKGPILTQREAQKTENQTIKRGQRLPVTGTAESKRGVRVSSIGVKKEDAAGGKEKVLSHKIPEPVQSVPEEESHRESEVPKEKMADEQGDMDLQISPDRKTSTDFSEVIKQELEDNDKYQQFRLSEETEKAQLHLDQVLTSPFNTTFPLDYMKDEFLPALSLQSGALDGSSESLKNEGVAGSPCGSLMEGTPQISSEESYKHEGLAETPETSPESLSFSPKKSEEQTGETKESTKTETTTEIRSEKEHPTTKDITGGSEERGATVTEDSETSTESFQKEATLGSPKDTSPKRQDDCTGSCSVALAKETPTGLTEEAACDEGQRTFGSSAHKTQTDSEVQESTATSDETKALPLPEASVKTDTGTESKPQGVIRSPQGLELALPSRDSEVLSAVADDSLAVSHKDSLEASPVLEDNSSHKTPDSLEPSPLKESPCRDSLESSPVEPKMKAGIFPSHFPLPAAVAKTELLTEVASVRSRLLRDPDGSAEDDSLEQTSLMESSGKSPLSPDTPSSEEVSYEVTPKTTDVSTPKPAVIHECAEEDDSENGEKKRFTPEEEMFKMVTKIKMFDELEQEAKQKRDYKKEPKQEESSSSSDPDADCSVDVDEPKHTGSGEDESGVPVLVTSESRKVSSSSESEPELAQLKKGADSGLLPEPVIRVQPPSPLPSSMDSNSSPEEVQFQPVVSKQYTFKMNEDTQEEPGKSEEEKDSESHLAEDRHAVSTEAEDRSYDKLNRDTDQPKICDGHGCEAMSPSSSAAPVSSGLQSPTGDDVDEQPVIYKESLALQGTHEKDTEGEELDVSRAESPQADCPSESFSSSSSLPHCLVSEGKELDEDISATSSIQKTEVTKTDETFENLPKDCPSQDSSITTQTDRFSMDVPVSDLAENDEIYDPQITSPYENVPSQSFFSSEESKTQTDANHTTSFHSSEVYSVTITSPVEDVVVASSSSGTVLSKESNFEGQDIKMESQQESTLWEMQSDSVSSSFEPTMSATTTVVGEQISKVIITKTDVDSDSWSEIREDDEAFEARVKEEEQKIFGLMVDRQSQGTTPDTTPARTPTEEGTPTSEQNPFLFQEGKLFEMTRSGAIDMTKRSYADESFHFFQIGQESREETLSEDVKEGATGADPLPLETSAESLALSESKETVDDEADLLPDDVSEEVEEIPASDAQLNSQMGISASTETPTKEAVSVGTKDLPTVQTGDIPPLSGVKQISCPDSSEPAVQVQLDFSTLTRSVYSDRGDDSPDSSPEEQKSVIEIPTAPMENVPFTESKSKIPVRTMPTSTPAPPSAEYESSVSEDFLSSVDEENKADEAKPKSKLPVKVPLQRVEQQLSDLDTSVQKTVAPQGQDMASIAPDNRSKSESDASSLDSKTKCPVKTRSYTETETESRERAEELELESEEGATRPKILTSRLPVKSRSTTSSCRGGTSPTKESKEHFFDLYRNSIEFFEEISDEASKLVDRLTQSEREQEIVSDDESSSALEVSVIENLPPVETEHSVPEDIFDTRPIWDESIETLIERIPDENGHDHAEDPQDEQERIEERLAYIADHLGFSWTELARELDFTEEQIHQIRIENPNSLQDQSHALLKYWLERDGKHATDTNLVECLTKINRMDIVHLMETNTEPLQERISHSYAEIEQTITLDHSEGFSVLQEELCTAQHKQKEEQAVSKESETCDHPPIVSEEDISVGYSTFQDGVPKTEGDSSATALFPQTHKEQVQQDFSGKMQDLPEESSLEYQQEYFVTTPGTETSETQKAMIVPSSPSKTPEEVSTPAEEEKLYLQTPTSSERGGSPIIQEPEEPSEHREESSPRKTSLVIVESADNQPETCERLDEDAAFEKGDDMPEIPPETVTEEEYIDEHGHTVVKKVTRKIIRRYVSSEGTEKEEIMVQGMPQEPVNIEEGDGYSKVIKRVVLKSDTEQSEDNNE",
  "data": [
    {"substance": "IP3 receptor (from UniProt P29994 1-2750)", "values": [
      {"measurement": "Kd", "value": 200, "unit": "nM"}
    ]}
  ]
}
